Patent US20050187156A1 (Stanford University, published 2005)

Target: T1, GST-εRACK (human εRACK expressed as a GST fusion protein) (human, UniProt P35606 1-906)
T1 construct: 10 ng was immobilized on Glutathione-Sepharose 4B beads; also called immobilized GST-εRACK; not shown: glutathione S-transferase (GST) tag of baculovirus vector PacG3X (BD Biosciences)
T1 sequence (looked up): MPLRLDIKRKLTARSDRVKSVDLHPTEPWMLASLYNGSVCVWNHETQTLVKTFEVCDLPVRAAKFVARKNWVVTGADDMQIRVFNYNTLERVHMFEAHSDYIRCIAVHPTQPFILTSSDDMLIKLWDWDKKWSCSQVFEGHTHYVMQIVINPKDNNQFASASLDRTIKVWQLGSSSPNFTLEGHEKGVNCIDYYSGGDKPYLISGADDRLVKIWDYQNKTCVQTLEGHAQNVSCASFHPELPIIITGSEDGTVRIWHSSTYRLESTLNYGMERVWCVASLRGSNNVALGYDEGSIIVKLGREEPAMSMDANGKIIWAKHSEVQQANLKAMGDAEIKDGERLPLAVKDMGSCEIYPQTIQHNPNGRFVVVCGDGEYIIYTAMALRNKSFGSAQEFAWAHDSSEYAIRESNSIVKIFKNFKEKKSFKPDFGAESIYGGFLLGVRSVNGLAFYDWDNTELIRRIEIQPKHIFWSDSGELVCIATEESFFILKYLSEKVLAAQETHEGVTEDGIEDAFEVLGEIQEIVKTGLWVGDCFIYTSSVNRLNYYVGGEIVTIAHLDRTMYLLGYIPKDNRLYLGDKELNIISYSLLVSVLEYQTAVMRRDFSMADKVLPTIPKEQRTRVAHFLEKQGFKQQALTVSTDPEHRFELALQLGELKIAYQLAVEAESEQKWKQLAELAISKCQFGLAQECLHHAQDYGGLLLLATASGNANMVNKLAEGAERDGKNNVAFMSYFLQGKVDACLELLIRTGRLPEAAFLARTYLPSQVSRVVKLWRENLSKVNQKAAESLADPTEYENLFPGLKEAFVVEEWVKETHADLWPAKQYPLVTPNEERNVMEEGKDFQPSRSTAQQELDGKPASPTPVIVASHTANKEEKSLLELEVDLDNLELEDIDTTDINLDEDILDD
Test: pull-down of insect cell-expressed εPKC on GST-εRACK immobilized on glutathione-Sepharose beads, no phospholipid activators, Western blot with anti-εPKC V5
Method: RACKs bind active PKC [Mochly-Rosen, D. & Gordon, A. S., FASEB J. 12:35-42 (1998); Mochly-Rosen, D. et al., Molec. Biol. Cell. (formerly Cell Regulation) 1:693-706 (1990).
Insect cells expressing either εPKC or GST-εRACK were lysed as described in Example 4. GST-εRACK, 10 ng was immobilized on Glutathion-Sepharose 4B beads (Amersham-Pharmacia), and washed thoroughly with wash buffer (20 mM Tris-HCl pH 7.5, 2 mM EDTA, 100 mM NaCl, 12 mM pME, and 0.1% TritonX-100). Immobilized GST-εRACK was then incubated with the soluble fraction of insect cell lysates containing 100 ng Wt, D(86)A, or D(86)N εPKC protein, in the presence or absence of phospholipid activators (PL) (phosphatidylserine 12 μg/reaction and, Sn-1,2 dioleoylglycerol 400 ng/reaction) for 1 hour at 4° C. Upon thorough washing with wash buffer, bound proteins were eluted in SDS-PAGE sample buffer and proteins separated on 8% SDS-PAGE gels. The amount of εPKC interacting with εRACK was determined by Western blot probing for εPKC with anti εPKC-V5 antibodies. Blots were then re-probed with ant-GST (Santa Cruz) to verify that the same amount of GST-εRACK was present in each binding assay. All other methods for this Example were performed as described, for example, in Example 4.

- fold binding relative to D(86)N or Wt εPKC (absence of PL activators): ≥ 2 fold
B1: D(86)A εPKC mutant (enzyme, human, UniProt Q02156 1-737, looked up)
chain: MVVFNGLLKIKICEAVSLKPTAWSLRHAVGPRPATFLLDPYIALNVDDSRIGQTATKQKTNSPAWHDEFVTDVCNGRKIELAVFHAAPIGYDDFVANCTIQFEELLQNGSRHFEDWIDLEPEGRVYVIIDLSGSSGEAPKDNEERVFRERMRPRKRQGAVRRRVHQVNGHKFMATYLRQPTYCSHCRDFIWGVIGKQGYQCQVCTCVVHKRCHELIITKCAGLKKQETPDQVGSQRFSVNMPHKFGIHNYKVPTFCDHCGSLLWGLLRQGLQCKVCKMNVHRRCETNVAPNCGVDARGIAKVLADLGVTPDKITNSGQRRKKLIAGAESPQPASGGSPSEEDRSKSAPTSPCDQEIKELENNIRKALSFDNRGEEHRAASSPDGQLMSPGENGEVRQGQAKRLGLDEFNFIKVLGKGSFGKVMLAELKGKDEVYAVKVLKKDVILQDDDVDCTMTEKRILALARKHPYLTQLYCCFQTKDRLFFVMEYVNGGDLMFQIQRSRKFDEPRSRFYAAEVTSALMFLHQHGVIYRDLKLDNILLDAEGHCKLADFGMCKEGILNGVTTTTFCGTPDYIAPEILQELEYGPSVDWWALGVLMYEMMAGQPPFEADNEDDLFESILHDDVLYPVWLSKEAVSILKAFMTKNPHKRLGCVASQNGEDAIKQHPFFKEIDWVLLEQKKIKPPFKPRIKTKRDVNNFDQDFTREEPVLTLVDEAIVKQINQEEFKGFSYFGEDLMP
notes: Used as the soluble fraction of a Hi5 insect cell lysate containing 100 ng εPKC protein; also called D(86)A ΨεRACK mutant; A mutant
